In PMC2118993 (The Journal of Experimental Medicine, 1991):
Side chains are listed from the residue outwards. Ends that are not written are not given here. * marks the point of attachment. Biotin = O=C1N[C@H]2[C@H](CS[C@H]2CCCCC(=O)*)N1; Ahx = NCCCCCC(=O)O

Legend:
[1] = biological target: T1, purified I-Ed class II glycoprotein (Mus musculus, UniProt P01904+P01915); type: binding
T1 sequence (P01904 26-255): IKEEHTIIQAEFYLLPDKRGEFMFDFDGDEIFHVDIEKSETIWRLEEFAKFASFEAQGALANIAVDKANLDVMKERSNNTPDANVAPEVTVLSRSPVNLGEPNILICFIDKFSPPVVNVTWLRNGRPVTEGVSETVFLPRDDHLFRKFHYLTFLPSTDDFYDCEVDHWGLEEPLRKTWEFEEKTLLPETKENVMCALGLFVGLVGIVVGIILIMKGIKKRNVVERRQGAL
T1 sequence (P01915 27-264 limits assumed): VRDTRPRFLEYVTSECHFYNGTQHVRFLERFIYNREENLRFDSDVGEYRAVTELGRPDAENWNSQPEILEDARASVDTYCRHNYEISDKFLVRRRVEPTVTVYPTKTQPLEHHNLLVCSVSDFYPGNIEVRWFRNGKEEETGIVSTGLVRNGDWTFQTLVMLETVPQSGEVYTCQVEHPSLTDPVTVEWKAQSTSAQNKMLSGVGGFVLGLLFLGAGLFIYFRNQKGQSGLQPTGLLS

[2] = test system: purified I-Ad class II glycoprotein; type: binding, mouse; conditions: immunoassay
[3] = biological target: I-Ed class II MHC glycoprotein, purified (mouse (endogenous in A20 B lymphoma)); experiment: ELISA

## FISEAIIHVLHSR [Myo(106-118), reference compound]
[1]; 2 μM biotin-HEL(104-120), 24 h, at higher competitor concentrations
  inhibition of binding of biotin-HEL(104-120) to I-Ed by unlabeled peptide: partially inhibited

## biotin-Myo(106-118): Myo(106-118) biotinylated with biotin-amidocaproate N-hydroxysuccinimide ester at the free α amino group ({Biotin-Ahx}-FISEAIIHVLHSR)
[2]
  binding to I-Ad (in words): binds well
[1]; 40 h at various pHs, 2 μM biotin-HEL(104-120) or 10 μM biotin-Myo(106-118)
  optimum pH of binding to I-Ed: more acidic pH
[1]; immunoassay
  binding to I-Ed (in words): weakly

## {Biotin-Ahx}-GMNAWVAWRNRCK([Ahx-Biotin])GTDVY [biotin-HEL(104-120)]
[3]
  Kd: 2330 nM
